Test results published in publication PMC9464890, “Exosite binding modulates the specificity of the immunomodulatory enzyme ScpA, a C5a inactivating bacterial protease” (Computational and Structural Biotechnology Journal, 2022).
Positions count from the first letter of the chain named.

Assays:
ScpA_(S512A,D783A) = biological target: T1, ScpA_(S512A,D783A) (Streptococcus pyogenes, UniProt P15926 31-1032, S512A | D783A); assay: SPR; BIAcore X100, NTA sensor chip with about 20-25 RU of immobilised His-tagged C5a form (ligand), ScpA form flowed as ligate at 30 uL/min, 25 °C, 10 mM Hepes-KOH pH 7.4, 150 mM NaCl, 0.005% Tween 20, 50 uM EDTA; global fit, 1:1 Langmuir model with drifting baseline; triplicate; settings: both partners purified
T1 construct: Made by QuikChange II from pGEX ScpA(31-1032); The active form D783A (S512 intact) was used for activity assays and for the crystal structure 7YZX; also called D783A_(S512A); source: details in Supplemental Information SI1 and SI2
T1 sequence (looked up): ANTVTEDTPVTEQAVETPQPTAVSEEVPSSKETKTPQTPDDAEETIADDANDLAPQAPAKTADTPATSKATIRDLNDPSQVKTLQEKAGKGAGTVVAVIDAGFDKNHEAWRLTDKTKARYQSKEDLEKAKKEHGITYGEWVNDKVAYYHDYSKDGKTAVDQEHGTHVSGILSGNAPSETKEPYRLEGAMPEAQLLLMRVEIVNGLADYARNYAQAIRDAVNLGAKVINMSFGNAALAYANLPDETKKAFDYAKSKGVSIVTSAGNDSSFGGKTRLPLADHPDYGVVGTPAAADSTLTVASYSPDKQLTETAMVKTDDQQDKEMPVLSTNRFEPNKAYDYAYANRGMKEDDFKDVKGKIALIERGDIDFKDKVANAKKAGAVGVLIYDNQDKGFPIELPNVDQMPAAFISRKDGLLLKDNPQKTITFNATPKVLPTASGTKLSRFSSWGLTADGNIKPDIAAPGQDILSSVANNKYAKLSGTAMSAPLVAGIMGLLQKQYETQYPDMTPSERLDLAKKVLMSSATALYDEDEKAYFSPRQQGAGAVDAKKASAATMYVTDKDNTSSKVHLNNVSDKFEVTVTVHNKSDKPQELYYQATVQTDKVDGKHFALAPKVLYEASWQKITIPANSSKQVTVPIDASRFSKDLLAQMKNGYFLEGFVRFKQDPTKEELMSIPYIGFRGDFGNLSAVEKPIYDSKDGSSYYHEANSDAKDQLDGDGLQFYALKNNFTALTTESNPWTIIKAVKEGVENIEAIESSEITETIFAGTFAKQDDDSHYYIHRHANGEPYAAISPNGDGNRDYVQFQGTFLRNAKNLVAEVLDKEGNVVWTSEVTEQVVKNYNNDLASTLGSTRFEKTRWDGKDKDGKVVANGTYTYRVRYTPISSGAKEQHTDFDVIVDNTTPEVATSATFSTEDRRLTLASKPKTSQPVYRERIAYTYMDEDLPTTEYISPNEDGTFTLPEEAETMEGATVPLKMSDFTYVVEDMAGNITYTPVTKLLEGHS

ScpA_(S512A,D889A) = biological target: T2, ScpA_(S512A,D889A) (Streptococcus pyogenes, UniProt P15926 31-1032, S512A | D889A); assay: as above; settings: both partners purified
T2 construct: Made by QuikChange II from pGEX ScpA(31-1032); also called D889A_(S512A); source: details in Supplemental Information SI1 and SI2
T2 sequence (looked up): T1 sequence (looked up) with A753D, D859A

B1: Recombinant human C5a (rhC5a) (natural protein, UniProt P01031 678-751, looked up)
chain: TLQKKIEEIAAKYKHSVVKKCCYDGACVNNDETCEQRAARISLGPRCIKAFTECCVVASQLRANISHKDMQLGR
notes: human complement C5a anaphylatoxin, residues 1-74 (core 1-67 and tail 68-74); also called full length rhC5a; substrate; not shown: His6, N-terminal, kept
- Kd (ScpA_(S512A,D783A)): 314 nM
- koff (ScpA_(S512A,D783A)): 0.0237 s⁻¹
- kon (ScpA_(S512A,D783A)): 75400 M⁻¹ s⁻¹
- Kd (ScpA_(S512A,D889A)): 27 nM
- koff (ScpA_(S512A,D889A)): 0.007 s⁻¹
- kon (ScpA_(S512A,D889A)): 263000 M⁻¹ s⁻¹
